Experimental findings from publication PMC11589680 (Nature Communications, 2024) are described below.

The chains are these.
B1: GST-SNX17 (natural protein)
chain: MHFSIPETESRSGDSGGSAYVAYNIHVNGVLHCRVRYSQLLGLHEQLRKEYGANVLPAFPPKKLFSLTPAEVEQRREQLEKYMQAVRQDPLLGSSETFNSFLRRAQQETQQVPTEEVSLEVLLSNGQKVLVNVLTSDQTEDVLEAVAAKLDLPDDLIGYFSLFLVREKEDGAFSFVRKLQEFELPYVSVTSLRSQEYKIVLRKSYWDSAYDDDVMENRVGLNLLYAQTVSDIERGWILVTKEQHRQLKSLQEKVSKKEFLRLAQTLRHYGYLRFDACVADFPEKDCPVVVSAGNSELSLQLRLPGQQLREGSFRVTRMRCWRVTSSVPLPSGSTSSPGRGRGEVRLELAFEYLMSKDRLQWVTITSPQAIMMSICLQSMVDELMVKKSGGSIRKMLRRRVGGTLRRSDSQQAVKSPPLLESPDATRESMVKLSSKLSAVSLRGIGSPSTDASASDVHGNFAFEGIGDEDL
B2: untagged full-length SNX17 (natural protein)
chain: MHFSIPETESRSGDSGGSAYVAYNIHVNGVLHCRVRYSQLLGLHEQLRKEYGANVLPAFPPKKLFSLTPAEVEQRREQLEKYMQAVRQDPLLGSSETFNSFLRRAQQETQQVPTEEVSLEVLLSNGQKVLVNVLTSDQTEDVLEAVAAKLDLPDDLIGYFSLFLVREKEDGAFSFVRKLQEFELPYVSVTSLRSQEYKIVLRKSYWDSAYDDDVMENRVGLNLLYAQTVSDIERGWILVTKEQHRQLKSLQEKVSKKEFLRLAQTLRHYGYLRFDACVADFPEKDCPVVVSAGNSELSLQLRLPGQQLREGSFRVTRMRCWRVTSSVPLPSGSTSSPGRGRGEVRLELAFEYLMSKDRLQWVTITSPQAIMMSICLQSMVDELMVKKSGGSIRKMLRRRVGGTLRRSDSQQAVKSPPLLESPDATRESMVKLSSKLSAVSLRGIGSPSTDASASDVHGNFAFEGIGDEDL

The first experiment deals with T1, Retriever complex (VPS35L, VPS26C, VPS29) (human, UniProt Q7Z3J2;O14972;Q9UBQ0-2). Put plainly: pull-down.
T1 sequence (Q7Z3J2 whole entry, chain 1 of 2): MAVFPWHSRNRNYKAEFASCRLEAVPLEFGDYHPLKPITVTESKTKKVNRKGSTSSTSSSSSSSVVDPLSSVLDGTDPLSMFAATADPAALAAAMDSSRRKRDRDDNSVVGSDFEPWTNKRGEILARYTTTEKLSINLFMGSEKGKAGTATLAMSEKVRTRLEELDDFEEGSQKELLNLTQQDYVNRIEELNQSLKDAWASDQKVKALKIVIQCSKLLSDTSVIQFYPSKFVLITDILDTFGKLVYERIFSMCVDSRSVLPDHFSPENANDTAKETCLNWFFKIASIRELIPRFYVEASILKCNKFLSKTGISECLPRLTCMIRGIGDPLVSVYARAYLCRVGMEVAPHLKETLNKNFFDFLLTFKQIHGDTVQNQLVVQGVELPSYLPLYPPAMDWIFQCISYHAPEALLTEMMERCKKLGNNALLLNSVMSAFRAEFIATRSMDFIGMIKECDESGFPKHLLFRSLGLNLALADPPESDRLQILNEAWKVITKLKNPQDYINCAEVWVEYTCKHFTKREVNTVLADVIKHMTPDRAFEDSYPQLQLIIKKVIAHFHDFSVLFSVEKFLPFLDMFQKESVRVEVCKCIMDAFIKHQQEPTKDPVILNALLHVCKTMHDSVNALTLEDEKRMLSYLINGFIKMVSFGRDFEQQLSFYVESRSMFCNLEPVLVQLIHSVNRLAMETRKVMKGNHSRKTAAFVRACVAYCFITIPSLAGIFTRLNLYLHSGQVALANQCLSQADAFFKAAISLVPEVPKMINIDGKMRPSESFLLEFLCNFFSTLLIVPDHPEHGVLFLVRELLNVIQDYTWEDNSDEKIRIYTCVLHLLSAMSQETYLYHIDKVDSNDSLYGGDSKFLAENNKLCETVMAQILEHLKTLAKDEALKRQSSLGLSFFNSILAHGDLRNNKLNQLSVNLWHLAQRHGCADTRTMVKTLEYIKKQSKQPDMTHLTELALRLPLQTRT
T1 sequence (O14972 whole entry, chain 2 of 2): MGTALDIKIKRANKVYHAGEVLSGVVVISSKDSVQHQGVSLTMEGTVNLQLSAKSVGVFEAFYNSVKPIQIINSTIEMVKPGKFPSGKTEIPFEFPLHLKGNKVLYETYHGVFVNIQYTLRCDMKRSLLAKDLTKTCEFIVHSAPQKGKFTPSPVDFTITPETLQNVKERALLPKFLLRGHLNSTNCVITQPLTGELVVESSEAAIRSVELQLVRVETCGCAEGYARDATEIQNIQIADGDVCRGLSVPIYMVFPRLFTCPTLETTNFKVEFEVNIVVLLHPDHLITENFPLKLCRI
With B1, the binding result is on record as “binds”.
On to B2, for which the binding result is “binds”.
Take ASASDVHGNFAFEGIGNEDL [GST-SNX17 CT tail, −4 position to N]: the binding result is given as “binds”.
As for SVYLVNFRCCRSHDLCNEDL [GST-tagged CT tail of PATE1 (last 20 amino acids)], the binding result was “binds”.
In the case of ASASDVHGNFAFEGIGQEDL [GST-SNX17 CT tail, −4 position to Q], the binding result is reported as “binds”.
As for ASASDVHGNFAFEGVGDEDL [GST-SNX17 CT tail, −6 position to V], the binding result is “binds”.
Regarding SKIKIAKDDCVFGNIKEEDL [GST-tagged CT tail of SNX31 (last 20 amino acids)], the binding result is reported as “binds”.
In the case of ASASDVHGNFAFEGLGDEDL [GST-SNX17 CT tail, −6 position to L], the binding result is “binds”.
In the case of RYVYYGKNSEGNRFIRDDQL [GST-tagged CT tail of LRMDA (last 20 amino acids)], the binding result is “binds”.

The target in another experiment is T1, Retriever complex (VPS35L, VPS26C, …). In words: equilibrium pull-down.
As a reminder, the Kd is the concentration at which binding is half-saturated. A low value points to higher affinity. Regarding ASASDVHGNFAFEGIGDEDL [GST-SNX17 CT (GST-tagged tail peptide, last 20 residues of SNX17)], the Kd was roughly 110 nM.
